Legend:
[1] = test system: Jurkat-IL-2-Luc reporter cells; assay: Jurkat-IL-2-Luc and HCT116-CD64 reporter co-stimulation assay; format: cell-based, human; details: Table 17; 20 ng/ml CDH3×CD3 bispecific; n=2
From the text: A T cell co-stimulation assay was designed based on T Cell Activation Bioassay (IL-2) Kit from Promega (Product #J1631). The assay consisted of a genetically engineered Jurkat T cell line that expresses luciferase reporter driven by an IL-2 promoter. Co-engagement of T cell antigen receptor (TCR/CD3) and CD28 co-stimulatory receptor induces activation of T cells and downstream intracellular signaling pathways that in turn regulate the expression of luciferase reporter. As described above, HCT116 human colon cancer cell line was used for TCR engagement using the CDH3×CD3 bispecific and genetically engineered by lentiviral transduction to express human FCγRI.
A 96 well culture plate was seeded with HCT116 parental or HCT116-CD64 cells at 40,000 cells per well in 100 μL RPMI with 10% HI FBS and grown overnight at 37° C. in CO2 incubator. To each well, Jurkat reporter cells (100,000 per well) and 10 μL of the CDH3×CD3 bispecific (8 ng/ml final concentration) were added. 10 μL of serial dilutions of variant CD80-Fc fusion proteins with concentrations ranging from 0-1000 ng/ml (final concentrations per well) was added with appropriate controls. Assay plates were incubated for 6 hours at 37° C. in CO2 incubator for before harvesting culture supernatants and transferring to new plates. Following equilibration, 80 μL of BioGlo luminescence reagent (BioGlo Luciferase assay kit, Promega, G7940) was added into each well. Plates were incubated for 5 minutes before reading luminescence on the EnSight™ plate reader (PerkinElmer).
Jurkat is an immortalized human T cell line, and the Jurkat IL-2-reporter assay assesses the CD28-mediated signaling resulting in activation of the IL-2 promoter. The activity of CD80-Fc fusion proteins was measured using the co-culture HCT116-CD64-Jurkat IL-2 reporter assay, as described in Example 2, but using 20 ng/ml CDH3×CD3 bispecific.

[2] = Thermal forced aggregation (SEC); format: physicochemical; details: Table 12, 24 hours, PBS
Protocol: To assess the aggregation propensity of variant CD80-Fc fusion proteins, 1 mg/ml of CD80-Fc fusion protein was incubated in PBS at increasing temperatures for 24 hours. The samples were analyzed by SEC on an Agilent 1100 (Agilent Technologies, Germany) HPLC system using a YMC-Pack Diol-200 (YMC, Germany) analytical size exclusion chromatography column and PBS supplemented to 400 mM NaCl as running buffer. % aggregation was calculated from the loss of intact peak area. […] ND=Not Determined.

[3] = test system: peripheral blood mononuclear cells (PBMC); assay: RESTORE cytokine release assay in absence of TCR stimulation; format: cell-based, human; parameters: IFNγ: unit not given beside the values; details: for IL-2: Table 21; for IFNγ: Table 22
Protocol: The ability of variant CD80-Fc fusion proteins to promote cytokine release in the absence of TCR stimulation was assessed in the RESTORE (RESetting T cells to Original Reactivity) assay (Römer et al, Blood, 2011). Freshly isolated peripheral blood mononuclear cells (PBMC) from whole blood of several healthy donors were cultured for 48 hours at […] within RPMI1640 media supplemented with 10% autologous plasma, 10 mM HEPES, 1× GlutaMAX, 1× PenStrep, beta2-mercaptoethanol, NEAA and sodium pyruvate. Following the 48-hour incubation, PBMC were pelleted and resuspended at a final concentration of 10^6/ml with indicated soluble drug. Treatment was allowed for 48 hours then supernatant was harvested and assessed in IL-2 and IFNγ ELISA according to manufacturer's protocol (BioLegend).
Positive controls included CD28 superagonist anti-CD28 clone TGN1412 as IgG1 and IgG4 isotypes and anti-CD3. […] Values shown are the average of 3 technical replicates. D=Donor.

For “CD80-K89D-D90K-T28V-T57V-Fc: non-cysteine stabilized variant CD80-Fc fusion protein (K89D, D90K, T28V, T57V)”, the EC50 [1] was 0.047 ± 0.004 nM, the “% aggregation” value ([2]; 40° C.) was 0.6% and the “% aggregation” value ([2]; 45.3° C.) was 6.0%. The “% aggregation” value ([2]; 49.4° C.) was 62.8%, the “% aggregation” value ([2]; 54.9° C.) was 72.5% and the IL-2 ([3]; D132, 1.9 μg/ml) was 0.0. For the same substance, the IL-2 ([3]; D132, 5.6 μg/ml) was 0.3, the IL-2 ([3]; D132, 16.7 μg/ml) was 0.7 and the IL-2 ([3]; D132, 50 μg/ml) was 3.7. For the same substance, the IL-2 ([3]; D149, 1.9 μg/ml) was 0.0, the IL-2 ([3]; D149, 5.6 μg/ml) was 0.0 and the IL-2 ([3]; D149, 16.7 μg/ml) was 3.7. The IL-2 ([3]; D149, 50 μg/ml) was 0.3, the IL-2 ([3]; D379, 1.9 μg/ml) was 2.3 and the IL-2 ([3]; D379, 5.6 μg/ml) was 0.0. The IL-2 ([3]; D379, 16.7 μg/ml) was 0.0, the IL-2 ([3]; D379, 50 μg/ml) was 0.0 and the IL-2 ([3]; D399, 1.9 μg/ml) was 0.0. For the same substance, the IL-2 ([3]; D399, 5.6 μg/ml) was 0.0, the IL-2 ([3]; D399, 16.7 μg/ml) was 0.0 and the IL-2 ([3]; D399, 50 μg/ml) was 0.0. It also gave an IL-2 ([3]; D417, 1.9 μg/ml) of 0.0, an IL-2 ([3]; D417, 5.6 μg/ml) of 0.0 and an IL-2 ([3]; D417, 50 μg/ml) of 0.0. The IL-2 ([3]; D518, 1.9 μg/ml) was 1.3, the IL-2 ([3]; D518, 5.6 μg/ml) was 0.3 and the IL-2 ([3]; D518, 16.7 μg/ml) was 0.0. The IL-2 ([3]; D518, 50 μg/ml) was 3.0, the IFNγ ([3]; D132, 1.9 μg/ml) was 0.0 and the IFNγ ([3]; D132, 5.6 μg/ml) was 0.0. It also gave an IFNγ ([3]; D132, 16.7 μg/ml) of 41.3, an IFNγ ([3]; D132, 50 μg/ml) of 0.0 and an IFNγ ([3]; D149, 1.9 μg/ml) of 0.0. For the same substance, the IFNγ ([3]; D149, 5.6 μg/ml) was 0.0, the IFNγ ([3]; D149, 16.7 μg/ml) was 0.0 and the IFNγ ([3]; D149, 50 μg/ml) was 12.3. It also gave an IFNγ ([3]; D379, 1.9 μg/ml) of 2.0, an IFNγ ([3]; D379, 5.6 μg/ml) of 0.0 and an IFNγ ([3]; D379, 50 μg/ml) of 0.0. For the same substance, the IFNγ ([3]; D399, 1.9 μg/ml) was 0.0, the IFNγ ([3]; D399, 5.6 μg/ml) was 0.0 and the IFNγ ([3]; D399, 16.7 μg/ml) was 0.0. For the same substance, the IFNγ ([3]; D399, 50 μg/ml) was 13.7, the IFNγ ([3]; D417, 1.9 μg/ml) was 0.0 and the IFNγ ([3]; D417, 5.6 μg/ml) was 94.3. For the same substance, the IFNγ ([3]; D417, 16.7 μg/ml) was 0.0, the IFNγ ([3]; D417, 50 μg/ml) was 0.0 and the IFNγ ([3]; D518, 1.9 μg/ml) was 0.0. The IFNγ ([3]; D518, 5.6 μg/ml) was 0.0, the IFNγ ([3]; D518, 16.7 μg/ml) was 0.0 and the IFNγ ([3]; D518, 50 μg/ml) was 0.0.

Source: patent publication US20240209061A1, “FUSION PROTEINS AND USES THEREOF” (Pfizer Inc., priority 2020, published 2024)
